Results published in the DeepSol protein solubility set.

Test: soluble on expression in E. coli; label from the status in PepcDB or PDB records

| Sequence | soluble on expression in E. coli |
| --- | --- |
| MSLKKFLKMFFPHDGIYEVLVGTSGIKPIIKPLGIIVEANELRSKIYKSTLTYSNLEKNNKCSIHVTLDTTFFILSMLDKLTFSIDSDYNVPVLKNLNVIYAECMKTSSTDPSIFTINPLDLEINSNLTRAYNRGDYISVDFLVNYTRLDIYKGEDLEKLVRILEYEWSVIKRTSQYTSSLLEEILNKMRSKGFKLDEGHHHHHH | not soluble |
| MFTIEHLNFAWLQVRAGSKSAGVDGISVDLFESMATEQLQNIAYQLKEETYTANPAKGFYIPKKNGTKRLIGIHTVRDRIIQRLLLDELYFPLEDTFLDCSYAYRPGHSIQQAVQHLYGYYQYQPKWIIKADVADFFDNLSWALLLTYLEELSLEPSLLQLLEQQLKSGIIIAGQYRNFGKGVLQGGILSGALANLYLTSFDRKCLSQGINLVRYGDDFVIACNSWLEANRILDKITGWLGEVYLTLQPEKTQIFTPNDEFTFLGYRFAGGEVYAPPPPEPVRPGEWVINDSGTPYFRLKPKPRKPVSLEHHHHHH | not soluble |
| MNGPIIMTREERMKIVHEIKERILDKYGDDVKAIGVYGSLGRQTDGPYSDIEMMCVMSTEEAEFSHEWTTGEWKVEVNFYSEEILLDYASQVESDWPLTHGQFFSILPIYDSGGYLEKVYQTAKSVEAQTFHDAICALIVEELFEYAGKWRNIRVQGPTTFLPSLTVQVAMAGAMLIGLHHRICYTTSASVLTEAVKQSDLPSGYDHLCQFVMSGQLSDSEKLLESLENFWNGIQEWTERHGYIVDVSKRIPF | soluble |
| MGSDKIHHHHHHMEVTRTDKAVTLTWNKEEVSEGTVVFVSSSPKLEANSEPVFKVTNDVDHYSYDTKDIPIYFFLETPNGYYAIVSERILPLESVFNFRDMGGYASKNGKHVKWGKLYRSSNLVNINENDAALLQKLHIKWICDLRSSSEVKAQPTPAIEGILNKHIPIGTAKNEETKLPVTNDTTIYEPLMGESYRVFVQSVEGFREIFTEVLEDAKAGLPFVFHCTAGKDRTGVLGALLLTLLDVPEKTIFDDYAITNRYQDDILQEMGGIVSLFSSGTEKIDLETFRPMAEARPEYLEIAFDEMKKQYGSVANYLEKGIGITATEKAAFQKEMLE | not soluble |
| MSLKITQIQAQNKNKNRRNVFVDGSYEFSCDMEIILKYKLKEGLEIDRTKLLQVIDQSKEEFAFRLALNYLSFKSRTSFEIYTYLLKKEYEEKIIEKVIEKLKYYRYVDDNQYVLNYIKTALAEGKKGKDRVQSDLINKKIPQDMIESHMHLFSCETNLEIAKELSNKYFKQNAHLPFNQFKNKLSQFLMRKGFNWEIINTCLNILEQDSEVQSHIDSNKELYVKEAIKLGNKYFVKYKAKETNPYLVEHKVKSHLYQKGYDKDTINLAFKKIIENSEGHHHHHH | not soluble |
| MEGSEEHSTDGEISSSEEEDEDPTPAHAIPARPSSVVITPTSASFVIPRKKWDLQDKTVTLHRSPLCRDEDEKEETGNSSYTRGHKRRRGEVHGCTDESYGKRRHLPPGARAPRAPRAPRVPRAPRSPRAPRSNRATRGPRSESRGAGRSTRKQARQERSQRPLPNKPWFDMSLVKPVSKITFVTLPSPLASLTLEPIQDPFLQSMLAVAAHPEIGAWQKVQPRHELRRSYKTLREFFTKSTNKDTWLDARMQAIQNAGLCTLVAMLEETIFWLQEITYHGDLPLAPAEDILLACAMSLSKVILTKLKELAPCFLPNTRDYNFVKQLFYITCATARQNKVVETLSSSYVKQPLCLLAAYAAVAPAYINANCRRRHDEVEFLGHYIKNYNPGTLSSLLTEAVETHTRDCRSASCSRLVRAILSPGTGSLGLFFVPGLNQ | soluble |
| MYRQALASGEKIFAVAPMIDWTDTRCRFLHRQLSKRALLFTEMIVADAIIHGQREKLLGYHPQEHPVALQLGGSNPAKLAEAVRIAGDYGYDEINLNVGCPSDRVQSGTFGACLMREPEVVAQCISAMKAVAAVPVTVKCRIGVDDQEPETVLPDFLARVVAAGADAVWVHARKAWLQGLSPKENREVPPLDYDLVYRMKRDNPDVFIGINGGIADLDQAGEHLKYVDGVMLGRAAYHNTSILADVDHRIHGEEALQYDWMALRDTMMAYAADYIATGGRLNHVTRHMVGLFQGMPGARRFRQILSSDATRPGAGPEVIEAAFAAIDFNPMKELAG | not soluble |
| MSLTSTATDSPLKYYDIGLNLTDPMFHGIYNGKQYHPADYVKLLERAAQRHVKNALVTGSSIAESQSAIELVSSVKDLSPLKLYHTIGVHPCCVNEFADASQGDKASASIDNPSMDEAYNESLYAKVISNPSFAQGKLKELYDLMNQQAKPHDTSFRSIGEIGLDYDRFHYSSKEMQKVFFEEQLKISCLNDKLSSYPLFLHMRSACDDFVQILERFVVGFTDEKDTFQLQKLGASSSSGFYKFHPDRKLVVHSFTGSAIDLQKLLNLSPNIFIGVNGCSLRTEENLAVVKQIPTERLLLETDAPWCEIKRTHASFQYLAKYQEVRDFEYPAFKSVKKNKLADKLNAEELYMVKGRNEPCNMEQVAIVVSEVKDVDLATLIDTTWKTTCKIFGEGHHHHHH | soluble |
| MGSDKIHHHHHHMTSPRIISIEGPMGAGKTSLARQLAQSLGGRMILEAPAQNPFLSRFYQGPGAALATELQFFMQRREQWRHRDDSSWLISDHSARKDEIFTPLTLDAEEHHLFNELRMALDFHPAPADLMIFLDAPLAVLMKRIRARGDAYEQALAPDYLARVQAAYRAWQANYALPRMNVDSAQVDFVHDPRHTERLIDAVRHRLKDAEEQDA | not soluble |
| MGSDKIHHHHHHVEDLKNLTNQAVEKQPEIVKRFNEMIDSQHLSHAYLLTGAGGIGKKDVAQWVAMRLFCIDLQGSMPCGECEECTRIMSGQHPDVVEIAPDGQSIKVEQVRFLKSEFSKSGVEGARKVFIIEQANKMTTSAANSLLKFIEEPSGEVTAFLLAENRSLMLPTIVSRTEIIELKPLPKDRLIKELTEQNIAETDARILTRLTNDMSEIQTLVDNNWILDAHKALEKWFITATTGDITAFVDVQTRVMALAKDRFYQEKILDLMMLYAMDLLELKFDQETITYEANRRQLQELADQTNVRQLLAVADVLLPLKHQLSQNLNFQSVVEKATIKICNIFKMRGR | not soluble |
| MALLDFFLSRKKNTANIAKERLQIIVAERRRSDAEPHYLPQLRKDILEVICKYVQIDPEMVTVQLEQKDGDISILELNVTLPEAEELK | not soluble |
| MAPKKVLLALTSYNDVFYSDGAKTGVFVVEALHPFNTFRKEGFEVDFVSETGKFGWDEHSLAKDFLNGQDETDFKNKDSDFNKTLAKIKTPKEVNADDYQIFFASAGHGTLFDYPKAKDLQDIASEIYANGGVVAAVCHGPAIFDGLTDKKTGRPLIEGKSITGFTDVGETILGVDSILKAKNLATVEDVAKKYGAKYLAPVGPWDDYSITDGRLVTGVNPASAHSTAVRSIDALKN | soluble |
| MSLTRGEARRPPQEFDRVLSSMCTTPHPAAREAAQAFLATNPGDPETYPAVAERERDAVALLGEIVGLSSPHGYIAAGGTEANLQAVRAARNRADADAVNVVAPASAHFSFQKAADVLGVELRLAPTDGDHRADVAAVADLVDGDTAVVVGVAGTTEYGRVDPIPALADIAAGVDANLHVDAAWGGFVLPFTDHDWSFADAPVNTMAIDPHKMGQAPVPAGGFLARDPETLDALAIETPYLESDTQPTLGGTRSGAGVAGALASLRALWPDGYREQYERTQGNAEYLAAELAARGYDVVDPELPLVAADMPDAEFQALREEGWRISRTASDALRVVCMPHVTREMLAAFLDDVDALAEGHHHHHH | not soluble |
| MTFIKRLEDAYETLLGNYPAGVSSTSTSKYNEIRKIVSEAFLIGENEVYVTGTSRRISNLDTRFAQGNQRNKHTRMAVAFISIPSVDDSELDELIIRTRNSAITTSSKFCNGEERGTIFDGILLFLVFEGETKVYPLAFLVFENDFELKEKAEELIPGIELKEYPRANQSPAQENNKSAKNEDEESAKSYVVFLDIEEDGSIVEFVEDKDKTYRIGDMIWTASHTNGSSAITRRLEVIEVVENLVVCKIKHKYNEPVDKNSLLKFVNIEQDLISFLDLHPNVQNGSEGFVSGDIVDENATTSSDDLPEDFENN | not soluble |
| MAHHHHHHMGTLEAQTQGPGSMGSLSTSISSITTNTTNLGNSTAAALGGGATYDPATGAISAPSYTTYNANGTTATNTSVGAAIDNINANGIKYFHANSTDPDSVATGTNSVAIGPNAVANVDYSVAIGSGATTSAAVPVASASVGGLTFGGFAGSAPIGVFSVGAPGAERQITNVAAGRISAASTDAVNGSQLYATNSN | soluble |
| MSSSHSRAGQSAAGAAPGGGVDTRDAEMPATEKDLAEDAPWKKIQQNTFTRWCNEHLKCVSKRIANLQTDLSDGLRLIALLEVLSQKKMHRKHNQRPTFRQMQLENVSVALEFLDRESIKLVSIDSKAIVDGNLKLILGLIWTLILHYSISMPMWDEEEDEEAKKQTPKQRLLGWIQNKLPQLPITNFSRDWQSGRALGALVDSCAPGLCPDWDSWDASKPVTNAREAMQQADDWLGIPQVITPEEIVDPNVDEHSVMTYLSQFPKAKLKPGAPLRPK | soluble |
| MSLLRSLRVFLVARTGSYPAGSLLRQSPQPRHTFYAGPRLSASASSKELLMKLRRKTGYSFVNCKKALETCGGDLKQAEIWLHKEAQKEGWSKAAKLQGRKTKEGLIGLLQEGNTTVLVEVNCETDFVSRNLKFQLLVQQVALGTMMHCQTLKDQPSAYSKGFLNSSELSGLPAGPDREGSLKDQLALAIGKLGENMILKRAAWVKVPSGFYVGSYVHGAMQSPSLHKLVLGKYGALVICETSEQKTNLEDVGRRLGQHVVGMAPLSVGSLDDEPGGEAETKMLSQPYLLDPSITLGQYVQPQGVSVVDFVRFECGEGEEAAETE | soluble |
| MGSDKIHHHHHHMGKTIAIMQPYFLPYIGYWQLMKASDIFVVYDNIKYTKKGWVNRNRYLSNGKIKLFSIPLMKASNSLQIKDRYLAETYKLESAKTLRKIKDAYAVSKNFHPCFNLIERCFNANENNLFEFIYNSVAIFKDVLGLRAQLVVSSSIACDHSLNSAERVKAICTELGAESYINPVGGEHLYERDDFQKLGINLRFLKPRIEEYPQLSCQFQPYMSILDICMSCTFDEVKNNII | not soluble |
| MNDIIVLTGKVKFTITLDPGVWIFDDRKVDMDAYFSEPAPQPTEAEQEDEEIKKLSAFWDREIQEGAVFPPTLKTERRFLKEKIITGSFGMPFAPFLRNAEPHEDASELVIETEHGETVIPLEKAYDLIFAFSQNGKPLRDDGPVHIYFGDGSNREAPITHVRRLVVR | not soluble |
| MGSDKIHHHHHHDKLDLSPIDYYGSGSYWKTEAQATAYIDGIHKHLRDAAWQHTITFGELRGGRFITGASSDGMGVSNGDIILQNFDETHTGVSKFGDLFGRITNLNLFIARVTDATYLSDEMKNFYLGEVYGLRAFYYFDLYRIYGGVPLRLTADVVEGVIDPNKLYMARSTPKEVMTQIKSDLNKSMEYFGNMNDFDPYKRGKKVYWSKAATECLMGEVYLWTSKVTTGDDVANPADLTIAKTHLESVLNNYNLKMLDDFSQVFNAKNKANDEIIFAIRFLEGEATNSNGTFTYNVGTGSTKNRYQANGEVFGDALDIQNTGNQTYEYNKAVYQNFDDADTRKEATFIASYNKDGKTGELSLYGTHVRKNIGYVNAQGARVYCGDYIFYRLPWVYLTLAEIANMEGDNAAVAKYINLVRKRAYGNAWDETLYAYPETADFTTNELAILHEKDKEFIQEGQRWWDLRRMTLTKGGTPLVFCKEGSLLGDAPILNKSTEAHKLLWPIEKTMLNKDPALEQTPGYK | not soluble |
